Experimental data published in US20230242640A1 (OSE IMMUNOTHERAPEUTICS, published 2023).

How the values were obtained:
[1] = biological target: T1, protein SIRPb-His (human, UniProt Q5TFQ8 30-371); assay: ELISA on coated SIRPb-His
T1 construct: The methods give no supplier for SIRPb-His; also called hSIRPb-his
From the text: FIG. 2. Binding on SIRPg, SIRPa and SIRPb ELISA assay (protein SIRPa/b/g-His coated and anti-human peroxidase detection). Binding analysis of antibodies A1, A5 and A8, and prior art antibody Kwar23.

[2] = biological target: T2, recombinant hSIRPg-His (Sino Biologicals reference 11828-H08H) (human, UniProt Q9P1W8 29-360); assay: ELISA on coated SIRPg-His
T2 construct: Bought protein; also called protein SIRPg-His; SIRP-gamma
Protocol: For activity ELISA assay, recombinant hSIRPg (Sino Biologicals, Beijing, China; reference 11828-H08H) or hSIRPa (Sino Biologicals, Beijing, China; reference 11612-H08H) was immobilized on plastic at 1 µg/ml (hSIRPg) or 0.5 µg/ml (hSIRPa) in carbonate buffer (pH9.2) and purified antibody were added to measure binding.

T1 sequence (Q5TFQ8 30-371): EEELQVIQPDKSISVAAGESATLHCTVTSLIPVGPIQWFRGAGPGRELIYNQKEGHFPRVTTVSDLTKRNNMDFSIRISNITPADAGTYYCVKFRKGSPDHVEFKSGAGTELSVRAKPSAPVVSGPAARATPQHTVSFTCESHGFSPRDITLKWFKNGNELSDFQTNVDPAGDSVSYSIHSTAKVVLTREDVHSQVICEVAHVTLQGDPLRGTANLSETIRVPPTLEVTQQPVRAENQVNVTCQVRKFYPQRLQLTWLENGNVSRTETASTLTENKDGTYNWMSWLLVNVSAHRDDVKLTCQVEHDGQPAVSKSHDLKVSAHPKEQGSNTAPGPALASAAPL
T2 sequence (Q9P1W8 29-360): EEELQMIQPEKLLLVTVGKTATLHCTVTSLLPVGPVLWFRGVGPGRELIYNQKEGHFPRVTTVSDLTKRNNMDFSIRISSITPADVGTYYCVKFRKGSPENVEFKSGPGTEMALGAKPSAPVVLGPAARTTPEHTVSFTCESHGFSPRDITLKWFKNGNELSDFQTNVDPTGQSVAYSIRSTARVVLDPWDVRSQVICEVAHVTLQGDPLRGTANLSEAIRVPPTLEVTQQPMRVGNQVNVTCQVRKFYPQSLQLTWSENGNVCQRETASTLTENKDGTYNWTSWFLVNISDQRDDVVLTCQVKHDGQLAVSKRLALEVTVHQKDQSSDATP

Binder	binding result [1]	binding result [2]
anti-SIRPg antibody A1 (antibody, human IgG4 S228P, kappa, V domains shown, human IgG4 S228P, kappa constant; also called VHA1-hFcG4 + VL-CLkappa) VH: EVQLVESGGGVVRPGGSLRLSCAASGFTFDDYGMSWVRQAPGKGLEWVSGINWNGGSTGYADSVKGRFTISRDNAKNSLYLQMNSLRAEDTAVYYCARWIAKVWGQGTLVTVSR VL: SSELTQDPAVSVALGQTVRITCQGDSLRSYYASWYQQKPGQAPVLVIYGKNNRPSGIPDRFSGSSSGNTASLTITGAQAEDEADYYCNSRDSSGNHVVFGGGTKLTVLR	no binding	binds
anti-SIRPg antibody A8 (antibody, human IgG4 S228P, kappa, V domains shown, human IgG4 S228P, kappa constant; also called VHA8-hFcG4 + VL-CLkappa) VH: not shown VL: SSELTQDPAVSVALGQTVRITCQGDSLRSYYASWYQQKPGQAPVLVIYGKNNRPSGIPDRFSGSSSGNTASLTITGAQAEDEADYYCNSRDSSGNHVVFGGGTKLTVLR	no binding	binds
anti-SIRPg antibody A5 (antibody, human IgG4 S228P, kappa, V domains shown, human IgG4 S228P, kappa constant; also called VHA5-hFcG4 + VL-CLkappa) VH: EVQLVESGGGVVRPGGSLRLSCAASGFTFDDYGMSWVRQAPGKGLEWVSGINWNGGSTGYADSVKGRFTISRDNAKNSLYLQMNSLRAEDTAVYYCARQMVKLWGQGTLVTVSR VL: SSELTQDPAVSVALGQTVRITCQGDSLRSYYASWYQQKPGQAPVLVIYGKNNRPSGIPDRFSGSSSGNTASLTITGAQAEDEADYYCNSRDSSGNHVVFGGGTKLTVLR	no binding	binds
